From patent publication US11319341B2, “Immune-stimulating soluble doxorubicin-conjugated complex” (Yafei (Shanghai) Biopharmaceutical Co., Ltd., priority 2016, dated 2022)
Residues, ends and D or L forms follow the SMILES beside them. *: point of attachment. Doxorubicin(3'-N) = COc1cccc2c1C(=O)c1c(O)c3c(c(O)c1C2=O)C[C@@](O)(C(=O)CO)C[C@@H]3O[C@H]1C[C@H](N*)[C@H](O)[C@H](C)O1; Mal(CH2CH2O)6CH2CH2CO = O=C1C=CC(=O)N1CCOCCOCCOCCOCCOCCOCCC(=O)*; MaleimidoPEG4propanoyl = O=C1C=CC(=O)N1CCOCCOCCOCCOCCC(=O)*; Propanoyl(3-maleimido) = O=C1C=CC(=O)N1CCC(=O)*; X1 = O=C1C=CC(=O)N1CCOCCOCCOCCC(=O)*; PEG6 = NCCOCCOCCOCCOCCOCCOCCC(=O)O; X2 = O=C1C=CC(=O)N1CCOCCOCCC(=O)*; PEG4 = NCCOCCOCCOCCOCCC(=O)O; PEG3 = NCCOCCOCCOCCC(=O)O; PEG2 = NCCOCCOCCC(=O)O

test: Water solubility of freeze-dried compounds in water (observation and HPLC); conditions: not given

SMILES	solubility [mg/mL]
COc1cccc2c1C(=O)c1c(O)c3c(c(O)c1C2=O)C[C@@](O)(C(=O)CO)C[C@@H]3O[C@H]1C[C@H](NC(=O)[C@H](CC(C)C)NC(=O)[C@H](CC(N)=O)NC(=O)[C@H](C)NC(=O)[C@H](C)NC(=O)[C@H](CCC(=O)O)NC(=O)CCOCCOCCN2C(=O)C=CC2=O)[C@H](O)[C@H](C)O1 [QHL-021] (X2-EAANL-{Doxorubicin(3'-N)})	> 20
COc1cccc2c1C(=O)c1c(O)c3c(c(O)c1C2=O)C[C@@](O)(C(=O)CO)C[C@@H]3O[C@H]1C[C@H](NC(=O)[C@H](CC(C)C)NC(=O)[C@H](CC(N)=O)NC(=O)[C@H](C)NC(=O)[C@H](C)NC(=O)[C@H](CCC(=O)O)NC(=O)CCOCCOCCOCCN2C(=O)C=CC2=O)[C@H](O)[C@H](C)O1 [QHL-022] (X1-EAANL-{Doxorubicin(3'-N)})	> 20
COc1cccc2c1C(=O)c1c(O)c3c(c(O)c1C2=O)C[C@@](O)(C(=O)CO)C[C@@H]3O[C@H]1C[C@H](NC(=O)[C@H](CC(C)C)NC(=O)[C@H](CC(N)=O)NC(=O)[C@H](C)NC(=O)[C@H](C)NC(=O)[C@H](CCC(=O)O)NC(=O)CCOCCOCCOCCOCCN2C(=O)C=CC2=O)[C@H](O)[C@H](C)O1 [QHL-023] (MaleimidoPEG4propanoyl-EAANL-{Doxorubicin(3'-N)})	> 25
COc1cccc2c1C(=O)c1c(O)c3c(c(O)c1C2=O)C[C@@](O)(C(=O)CO)C[C@@H]3O[C@H]1C[C@H](NC(=O)[C@H](CC(C)C)NC(=O)[C@H](CC(N)=O)NC(=O)[C@H](C)NC(=O)[C@H](C)NC(=O)[C@H](CCC(=O)O)NC(=O)CCOCCOCCOCCOCCOCCOCCN2C(=O)C=CC2=O)[C@H](O)[C@H](C)O1 [QHL-024] ({Mal(CH2CH2O)6CH2CH2CO}-EAANL-{Doxorubicin(3'-N)})	> 30
COc1cccc2c1C(=O)c1c(O)c3c(c(O)c1C2=O)C[C@@](O)(C(=O)CO)C[C@@H]3O[C@H]1C[C@H](NC(=O)[C@H](CC(C)C)NC(=O)[C@H](CC(N)=O)NC(=O)[C@H](C)NC(=O)[C@H](C)NC(=O)[C@H](CC(=O)O)NC(=O)CCOCCOCCN2C(=O)C=CC2=O)[C@H](O)[C@H](C)O1 [QHL-033] (X2-DAANL-{Doxorubicin(3'-N)})	> 20
COc1cccc2c1C(=O)c1c(O)c3c(c(O)c1C2=O)C[C@@](O)(C(=O)CO)C[C@@H]3O[C@H]1C[C@H](NC(=O)[C@H](CC(C)C)NC(=O)[C@H](CC(N)=O)NC(=O)[C@H](C)NC(=O)[C@H](C)NC(=O)[C@H](CC(=O)O)NC(=O)CCOCCOCCOCCN2C(=O)C=CC2=O)[C@H](O)[C@H](C)O1 [QHL-034] (X1-DAANL-{Doxorubicin(3'-N)})	> 20
COc1cccc2c1C(=O)c1c(O)c3c(c(O)c1C2=O)C[C@@](O)(C(=O)CO)C[C@@H]3O[C@H]1C[C@H](NC(=O)[C@H](CC(C)C)NC(=O)[C@H](CC(N)=O)NC(=O)[C@H](C)NC(=O)[C@H](C)NC(=O)[C@H](CC(=O)O)NC(=O)CCOCCOCCOCCOCCN2C(=O)C=CC2=O)[C@H](O)[C@H](C)O1 [QHL-035] (MaleimidoPEG4propanoyl-DAANL-{Doxorubicin(3'-N)})	> 25
COc1cccc2c1C(=O)c1c(O)c3c(c(O)c1C2=O)C[C@@](O)(C(=O)CO)C[C@@H]3O[C@H]1C[C@H](NC(=O)[C@H](CC(C)C)NC(=O)[C@H](CC(N)=O)NC(=O)[C@H](C)NC(=O)[C@H](C)NC(=O)[C@H](CC(=O)O)NC(=O)CCOCCOCCOCCOCCOCCOCCN2C(=O)C=CC2=O)[C@H](O)[C@H](C)O1 [QHL-036] ({Mal(CH2CH2O)6CH2CH2CO}-DAANL-{Doxorubicin(3'-N)})	> 30
COc1cccc2c1C(=O)c1c(O)c3c(c(O)c1C2=O)C[C@@](O)(C(=O)CO)C[C@@H]3O[C@H]1C[C@H](NC(=O)[C@H](CC(C)C)NC(=O)[C@H](CC(N)=O)NC(=O)[C@H](C)NC(=O)[C@H](C)NC(=O)[C@H](CCC(=O)O)NC(=O)CCOCCOCCNC(=O)CCN2C(=O)C=CC2=O)[C@H](O)[C@H](C)O1 [QHL-039] ({Propanoyl(3-maleimido)-PEG2}-EAANL-{Doxorubicin(3'-N)})	> 20
COc1cccc2c1C(=O)c1c(O)c3c(c(O)c1C2=O)C[C@@](O)(C(=O)CO)C[C@@H]3O[C@H]1C[C@H](NC(=O)[C@H](CC(C)C)NC(=O)[C@H](CC(N)=O)NC(=O)[C@H](C)NC(=O)[C@H](C)NC(=O)[C@H](CC(=O)O)NC(=O)CCOCCOCCNC(=O)CCN2C(=O)C=CC2=O)[C@H](O)[C@H](C)O1 [QHL-042] ({Propanoyl(3-maleimido)-PEG2}-DAANL-{Doxorubicin(3'-N)})	> 20
COc1cccc2c1C(=O)c1c(O)c3c(c(O)c1C2=O)C[C@@](O)(C(=O)CO)C[C@@H]3O[C@H]1C[C@H](NC(=O)[C@H](CC(C)C)NC(=O)[C@H](CC(N)=O)NC(=O)[C@H](C)NC(=O)[C@H](C)NC(=O)[C@H](CCC(=O)O)NC(=O)CCOCCOCCOCCNC(=O)CCN2C(=O)C=CC2=O)[C@H](O)[C@H](C)O1 [QHL-045] ({Propanoyl(3-maleimido)-PEG3}-EAANL-{Doxorubicin(3'-N)})	> 20
COc1cccc2c1C(=O)c1c(O)c3c(c(O)c1C2=O)C[C@@](O)(C(=O)CO)C[C@@H]3O[C@H]1C[C@H](NC(=O)[C@H](CC(C)C)NC(=O)[C@H](CC(N)=O)NC(=O)[C@H](C)NC(=O)[C@H](C)NC(=O)[C@H](CC(=O)O)NC(=O)CCOCCOCCOCCNC(=O)CCN2C(=O)C=CC2=O)[C@H](O)[C@H](C)O1 [QHL-048] ({Propanoyl(3-maleimido)-PEG3}-DAANL-{Doxorubicin(3'-N)})	> 20
COc1cccc2c1C(=O)c1c(O)c3c(c(O)c1C2=O)C[C@@](O)(C(=O)CO)C[C@@H]3O[C@H]1C[C@H](NC(=O)[C@H](CC(C)C)NC(=O)[C@H](CC(N)=O)NC(=O)[C@H](C)NC(=O)[C@H](C)NC(=O)[C@H](CCC(=O)O)NC(=O)CCOCCOCCOCCOCCNC(=O)CCN2C(=O)C=CC2=O)[C@H](O)[C@H](C)O1 [QHL-051] ({Propanoyl(3-maleimido)-PEG4}-EAANL-{Doxorubicin(3'-N)})	> 25
COc1cccc2c1C(=O)c1c(O)c3c(c(O)c1C2=O)C[C@@](O)(C(=O)CO)C[C@@H]3O[C@H]1C[C@H](NC(=O)[C@H](CC(C)C)NC(=O)[C@H](CC(N)=O)NC(=O)[C@H](C)NC(=O)[C@H](C)NC(=O)[C@H](CC(=O)O)NC(=O)CCOCCOCCOCCOCCNC(=O)CCN2C(=O)C=CC2=O)[C@H](O)[C@H](C)O1 [QHL-054] ({Propanoyl(3-maleimido)-PEG4}-DAANL-{Doxorubicin(3'-N)})	> 25
COc1cccc2c1C(=O)c1c(O)c3c(c(O)c1C2=O)C[C@@](O)(C(=O)CO)C[C@@H]3O[C@H]1C[C@H](NC(=O)[C@H](CC(C)C)NC(=O)[C@H](CC(N)=O)NC(=O)[C@H](C)NC(=O)[C@H](C)NC(=O)[C@H](CCC(=O)O)NC(=O)CCOCCOCCOCCOCCOCCOCCNC(=O)CCN2C(=O)C=CC2=O)[C@H](O)[C@H](C)O1 [QHL-057] ({Propanoyl(3-maleimido)-PEG6}-EAANL-{Doxorubicin(3'-N)})	> 25
COc1cccc2c1C(=O)c1c(O)c3c(c(O)c1C2=O)C[C@@](O)(C(=O)CO)C[C@@H]3O[C@H]1C[C@H](NC(=O)[C@H](CC(C)C)NC(=O)[C@H](CC(N)=O)NC(=O)[C@H](C)NC(=O)[C@H](C)NC(=O)[C@H](CC(=O)O)NC(=O)CCOCCOCCOCCOCCOCCOCCNC(=O)CCN2C(=O)C=CC2=O)[C@H](O)[C@H](C)O1 [QHL-060] ({Propanoyl(3-maleimido)-PEG6}-DAANL-{Doxorubicin(3'-N)})	> 25

same assay, conditions: freeze-dried compound dissolved in water; observation and HPLC test (>95%)

SMILES	solubility [mg/mL]
COc1cccc2c1C(=O)c1c(O)c3c(c(O)c1C2=O)C[C@@](O)(C(=O)CO)C[C@@H]3O[C@H]1C[C@H](N)[C@H](O)[C@H](C)O1 [C1: DOX]	<1
